In patent US20210206842A1 (NATIONAL RESEARCH COUNCIL OF CANADA, published 2021):

Legend:
[1] = biological target: T1, FC5DIE3IR recombinant protein; experiment: ELISA, hybridoma supernatant on coated purified FC5DIE3IR
T1 construct: Made in CHO-3E7 cells; also called FC5DIE31R; FC5DIE3R
Procedure: (§1) Screening. Hybridoma supernatants were screened by ELISA to detect specific binders. To this end, 96-well half-area plates (Costar #3690) were coated with 25 μl of FC5DIE3IR or FC5-VHH or FC5-hFc-1X0 at 5 μg/ml in PBS and incubated overnight at 4° C. Microplates were washed 3 times with PBS, blocked with PBS-BSA 1%, and 25 μl of hybridoma supernatants were added and incubated at 37° C., 5% CO₂ for 2 hours. […] After 4 washes with PBS-Tween 20 0.05%, 25 μl of a 1 mg/ml pNPP substrate solution was added and further incubated for one hour at 37° C.

[2] = biological target: T1, FC5DIE3IR recombinant protein; experiment: ELISA on coated FC5DIE3IR, serial dilutions of purified mAb, OD 405 nm; fit One site - Specific binding with Hill slope; apparent Kd in the unit of the concentration axis (nM), the table itself prints no unit
Procedure: as §1
(§2) Evaluation of apparent affinity in ELISA. Purified antibodies were assessed for their binding activity by ELISA in a dose-dependent binding curve. Serial 1/3 dilutions of purified mAbs starting at 120 nM were applied onto wells and ELISA was performed as described above (screening section). The data were analyzed with GraphPad Prism software using one-site specific binding-with Hill slope non-linear regression curve fit model to determine Bₘₐₓ (maximum specific binding) and Kdₐₚₚ (concentration needed to achieve a half-maximum binding at equilibrium) for each mAb tested.

peptide #40b (40 aa) = biological target: T2, peptide #40b (40 aa) (human); experiment: ELISA on coated peptide or FC5DIE3IR, mAb detected with HRP anti-mouse Fc, Abs 450nm
T2 construct: Custom-synthesized (Biomatik); also called pep #40b; P40b
Procedure: (§3) The peptides were custom-synthesized (Biomatik) and tested for antibody binding by ELISA. […] The wells were blocked with 1% BSA in TBS-T for 30 min and then incubated with 1:1000 dilution of anti-hNaᵥ1.7 mAb at room temperature (RT) for one hr.

peptide #40a (40 aa) = biological target: T3, peptide #40a (40 aa) (human); experiment: as above
T3 construct: Custom-synthesized (Biomatik); also called pep #40a; P40a
T3 peptide: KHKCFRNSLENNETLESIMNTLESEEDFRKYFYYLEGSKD
Procedure: as §3

[3] = biological target: T1, FC5DIE3IR recombinant protein; experiment: SPR (Biacore T200), single cycle kinetics, Fc-captured mAb, FC5DIE3IR flowed (320 nM-20 nM), 1:1 model, 25 C
Procedure: (§4) HBS-EP running buffer used for SPR experiments. […] Test binding experiments of FC5 control and FC5DIE3IR involved flowing 1 μM concentrations of SEC-pure material over the mAb surface at a flow rate of 30 μl/min for 5 min. Surfaces could be regenerated using 10 mM glycine, pH 1.7, with a 120 sec pulse at 20 μl/min. All SPR experiments were evaluated with Biacore T200 Software v 3.0. […] Regeneration conditions were the same as above. Data were fit to a 1:1 binding model and analyzed using the Biacore T200 Software v3.0.

VHH FC5 [4] = biological target: T4, VHH FC5; experiment: ELISA, hybridoma supernatant on coated purified FC5-VHH
T4 construct: put together from its FR and CDR entries; also called FC5-VHH; FC5 control
T4 sequence (VHH, as listed by the source): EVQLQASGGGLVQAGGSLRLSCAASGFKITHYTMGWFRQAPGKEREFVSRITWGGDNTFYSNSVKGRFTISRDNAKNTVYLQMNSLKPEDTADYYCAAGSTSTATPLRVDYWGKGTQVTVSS
Procedure: as §1

human Nav1.7 polypeptide [5] = biological target: T5, human Nav1.7 polypeptide (human, UniProt Q15858 1-1988); experiment: cell ELISA, hybridoma supernatant on live CHO cells expressing human Nav1.7, duplicate 2
T5 construct: also called hNav1.7; SCN9A
Procedure: (§5) Cell-ELISA. Sterile 96-well plates (Costar #3595) were pre-treated with 50 μl/well of branched polyethyleneimine (PEI, Sigma Cat #408727) at 25 μg/ml in PBS for 30 min at room temperature. PEI was removed and CHO-3E7 or hNAᵥ1.7-CHO (ChanTest cat #CT4003) were seeded at 6×10⁵ cells per well in FreeStyle F17 Expression Medium (Gibco Cat #A1383501) and incubated overnight at 37° C., 5% CO₂. Microplates were blocked with Starting block (Thermofisher Cat #37538) for 30 min at room temperature, and 50 μl of hybridoma supernatants were added and incubated at 4° C. for 3 h. […] After 10 washes with PBS, 50 μl of TMB substrate solution (Pierce Cat #34021) was added and further incubated for 60 min at room temperature.

VHH FC5 [6] = biological target: T4, VHH FC5; experiment: SPR, single cycle kinetics, Fc-captured mAb, FC5 flowed, 25 C
Procedure: as §4

peptide #2b (20 aa) = biological target: T6, peptide #2b (20 aa) (human); experiment: ELISA on coated P2b, mAb at the dilutions 1:1000, 1:5000 and 1:10000, Abs 450nm
T6 construct: Custom-synthesized (Biomatik); also called pep #2b; P2b
T6 peptide: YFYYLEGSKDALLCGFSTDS
Procedure: as §3

peptide #2a (20 aa) = biological target: T7, peptide #2a (20 aa) (human); experiment: ELISA on coated P2a, mAb at the dilutions 1:1000, 1:5000 and 1:10000, Abs 450nm
T7 construct: Custom-synthesized (Biomatik); also called pep #2a; P2a
T7 peptide: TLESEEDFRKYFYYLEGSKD
Procedure: as §3

[7] = biological target: T1, FC5DIE3IR recombinant protein; experiment: ELISA on coated FC5DIE3IR, serial dilutions of purified mAb; fit One site - Specific binding with Hill slope
Procedure: as §1, §2

human Nav1.7 polypeptide [8] = biological target: T5, human Nav1.7 polypeptide; experiment: cell ELISA, hybridoma supernatant on live CHO cells expressing human Nav1.7, duplicate 1
Procedure: as §5

VHH FC5 [9] = biological target: T4, VHH FC5; experiment: SPR (Biacore T200), ligand 3A8 captured by anti-mouse IgG, VHH FC5 flowed at 1 µM, 25 °C, 1:1 binding model; the fit is printed under a flat sensorgram and the filing says that 3A8 did not bind FC5
Procedure: as §4

peptide #3 (30 aa) = biological target: T8, peptide #3 (30 aa) (human); experiment: ELISA on coated peptide or FC5DIE3IR, mAb detected with HRP anti-mouse Fc, Abs 450nm
T8 construct: Custom-synthesized (Biomatik); also called pep #3; P3
T8 sequence (peptide, as listed by the source): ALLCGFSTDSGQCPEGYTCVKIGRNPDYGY
Procedure: as §3

peptide #2 (30 aa) = biological target: T9, peptide #2 (30 aa) (human); experiment: as above
T9 construct: Custom-synthesized (Biomatik); also called pep #2; P2
T9 peptide: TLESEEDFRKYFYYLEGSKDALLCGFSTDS
Procedure: as §3

[10] = biological target: T1, FC5DIE3IR recombinant protein; experiment: SPR (Biacore T200), ligand 3A8 captured by anti-mouse IgG, FC5DIE3IR flowed at 1 µM, 25 °C, 1:1 binding model
Procedure: as §4

[11] = biological target: T1, FC5DIE3IR recombinant protein; experiment: ELISA dose curve of purified mAb on coated FC5DIE3IR
Procedure: as §1, §2

[12] = biological target: T1, FC5DIE3IR recombinant protein; experiment: apparent KD (Kdapp), ELISA dose curve of purified mAb on coated FC5DIE3IR; 3A8 clone (IgG2a), ELISA apparent KD
Procedure: as §1, §2

[13] = biological target: T1, FC5DIE3IR recombinant protein; experiment: SPR single cycle kinetics, ligand 3A8 Fc-captured, FC5DIE3IR flowed in five rising concentrations, 1:1 binding model
Procedure: as §4

human Nav1.7 polypeptide [14] = biological target: T5, human Nav1.7 polypeptide; experiment: cell-based or functional assay
human Nav1.7 polypeptide [15] = biological target: T5, human Nav1.7 polypeptide; experiment: cell-based or functional assay; remark: listed apart in the source
VHH FC5 [16] = biological target: T4, VHH FC5; experiment: SPR (Biacore T200), ligand 3A8 captured by anti-mouse IgG, VHH FC5 flowed at 1 µM, 25 °C, 1:1 binding model; the label reads KD: without a unit, M follows from kd/ka; the fit is printed under a flat sensorgram and the filing says that 3A8 did not bind FC5
Procedure: as §4

B1: anti-hNav1.7 mAb 2G11 (antibody, V domains shown)
VH: QVQLQQPGAELVKPGASVKLSCKASGYTFTTYWMHWVKQRPGQGLEWIGEINPSNGRANYNEKFKSKATLTVDKSSSTAYMQLSSLTSEDSAVYYCLRSLGYFDYWGQGTTLTVSS
VL: DVVMTQSPLSLPVSLGDQASISCRSSQSLVHSNGNTYLHWYLQKAGQSPKFLIYKVSNRFSGVPDRFSGSGSGTDFTLKISRVEAEDLGVYFCSQSTHVPYTFGGGTKLEIK
- ELISA signal (OD 405 nm) [1]: 0.86 OD 405 nm
- Kd [2]: 0.847 nM
- binding result (peptide #40b (40 aa)): no binding
- binding result (peptide #40a (40 aa)): binds
- Kd [3]: 55.1 nM
- koff [3]: 0.000526 s⁻¹
- kon [3]: 9560 M⁻¹ s⁻¹
- ELISA signal (OD 405 nm) (VHH FC5 [4]): 0.021 OD 405 nm
- cell ELISA signal (OD 450 nm) (human Nav1.7 polypeptide [5]): 0.049 OD 450 nm
- binding result (VHH FC5 [6]): no binding
- binding result (peptide #2b (20 aa)): no binding (tested: 1:1000 dilution)
- binding result (peptide #2a (20 aa)): no binding (tested: 1:1000 dilution)
- Bmax [7]: 1.84 OD405 nm
- cell ELISA signal (OD 450 nm) (human Nav1.7 polypeptide [8]): 0.041 OD 450 nm

B2: anti-hNav1.7 mAb 3A8 (antibody, V domains shown)
VH: QVQLQQPGAELVKPGASVKLSCKASGYTFTNYWMHWVKQRPGQGLEWIGEINPSNGRANYNEKFKSKATLTVDKSSSTAYMQLSSLTSEDSAVYYCARSPYGYYDYWGQGTTLTVSS
VL: DVLMTQTPLSLPVSLGDQASISCRSSQSLLHSNGNTYFHWYLQKPGQSPKLLIYKVSNRFFGVPDRFSGSGSGTDFTLKISRVEAEDLGVYFCSQITHVPLTFGAGTKLELK
notes: also called F233-3A8
- koff (VHH FC5 [9]): 0.0138 s⁻¹
- kon (VHH FC5 [9]): 28700 M⁻¹ s⁻¹
- ELISA signal (OD 405 nm) [1]: 0.995 OD 405 nm
- Kd [2]: 1.84 nM
- binding result (peptide #40a (40 aa)): binds
- binding result (peptide #3 (30 aa)): no binding
- binding result (peptide #2 (30 aa)): binds
- Kd [3]: 36.7 nM
- koff [3]: 0.000259 s⁻¹
- kon [3]: 7050 M⁻¹ s⁻¹
- Kd [10]: 17.1 nM
- koff [10]: 4.52e-05 s⁻¹
- kon [10]: 2640 M⁻¹ s⁻¹
- fold lower apparent KD than the 1G5 clone [11]: ~2.5 fold
- ELISA signal (OD 405 nm) (VHH FC5 [4]): 0.029 OD 405 nm
- Kd [12]: 1.9 nM
- Kd [13]: 7.59 nM
- koff [13]: 3.15e-05 s⁻¹
- kon [13]: 4160 M⁻¹ s⁻¹
- cell ELISA signal (OD 450 nm) (human Nav1.7 polypeptide [5]): 0.183 OD 450 nm
- concentration response relationship (IC50), hNav1.7 currents, whole-cell patch clamp, hNav1.7-HEK293 cells (human Nav1.7 polypeptide [14]): 900 nM
- Concentration response relationship (IC50), hNav1.7 currents, whole-cell patch clamp, hNav1.7-HEK293 cells, resting/closed state (human Nav1.7 polypeptide [15]): 850 nM
- Efficacy (degree of maximum inhibition) % (human Nav1.7 polypeptide [15]): 16%
- Reduction currents (%) at 0.5 µM (human Nav1.7 polypeptide [15]): 3.6%
- Reduction currents (%) at 1 µM (human Nav1.7 polypeptide [15]): 8.2%
- Reduction currents (%) at 2 µM (human Nav1.7 polypeptide [15]): 16%
- Reduction currents (%) at 3 µM (human Nav1.7 polypeptide [15]): 15.4%
- Time constant of the block of the hNav1.7 currents (1 µM) (human Nav1.7 polypeptide [15]): 184 s
- Time constant of the block of the hNav1.7 currents (2 µM) (human Nav1.7 polypeptide [15]): 105 s
- binding result (peptide #2a (20 aa)): binds
- Bmax [7]: 2.15 OD405 nm
- Kd (VHH FC5 [16]): 482 nM
- cell ELISA signal (OD 450 nm) (human Nav1.7 polypeptide [8]): 0.102 OD 450 nm
